Data set [1] concerns the target T1, B. amyloliquefaciens subtilisin, wild type (WT, Gly166) (Bacillus amyloliquefaciens, UniProt P00782).
T1 construct: at various amino acid residues within the mature form of the subtilisin molecule; made in house; host or cells: Bacillus subtilis (secreted, culture supernatant)
T1 sequence (P00782 108-382): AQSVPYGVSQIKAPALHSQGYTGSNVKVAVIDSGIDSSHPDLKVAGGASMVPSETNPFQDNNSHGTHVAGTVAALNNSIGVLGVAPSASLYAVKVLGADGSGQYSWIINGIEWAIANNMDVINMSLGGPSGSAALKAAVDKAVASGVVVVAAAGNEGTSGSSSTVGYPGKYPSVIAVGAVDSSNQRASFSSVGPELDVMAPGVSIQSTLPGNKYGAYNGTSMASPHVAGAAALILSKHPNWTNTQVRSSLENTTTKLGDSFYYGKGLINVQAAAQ
The data set can be described thus: Kinetics of hydrolysis of succinyl-Ala-Ala-Pro-X-p-nitroanilide substrates (progress curve analysis). The class given is biochemical. As to conditions: for kcat/Kmx10^-4: Table XII, Ala (wild type) at position 152, synthetic p-nitroanilide substrate with label as P-1 amino acid. The source says: A change in substrate specificity is defined as a difference between the kcat/Km ratio of the precursor carbonyl hydrolase and that of the hydrolase mutant. The kcat/Km ratio is a measure of catalytic efficienty. Carbonyl hydrolase mutants with increased or diminished kcat/Km ratios are described in the examples. Generally, the objective will be to secure a mutant having a greater (numerically large) kcat/Km ratio for a given substrate, thereby enabling the use of the enzyme to more efficiently act on a target substrate. A substantial change in kcat/Km ratio is preferably at least 2-fold increase or decrease. However, smaller increases or decreases in the ratio (e.g., at least 1.5-fold) are also considered substantial. An increase in kcat/Km ratio for one substrate may be accompanied by a reduction in kcat/Km ratio for another substrate. […] Km and kcat are measured in accord with known procedures, as described in EPO Publication No. 0130756 or as described herein.
(§1) Wild-type subtilisin was purified from B. subtilis culture supernatants expressing the B. amyloliquefaciens subtilisin gene (Wells, J.A., et al. (1983) Nucleic Acids Res. 11, 7911-7925) as previously described (Estell, D.A., et al. (1985) J. Biol. Chem. 260, 6518-6521). Details of the synthesis of tetrapeptide substrates having the form succinyl-L-AlaL-AlaL-ProL-[X]-p-nitroanilide (where X is the P1 amino acid) are described by DelMar, E.G., et al. (1979) Anal. Biochem. 99, 316-320. Kinetic parameters, Km(M) and kcat-(s-^1) were measured using a modified progress curve analysis (Estell, D.A., et al. (1985) J. Biol. Chem. 260, 6518-6521). Briefly, plots of rate versus product concentration were fit to the differential form of the rate equation using a non-linear regression algorithm. Errors in kcat and Km for all values reported are less than five percent. The various substrates in Table VIII are ranged in order of decreasing hydrophobicity. Nozaki, Y. (1971), J. Biol. Chem. 246, 2211-2217; Tanford C. (1978) Science 200, 1012).

Data set [2] addresses T2, B. amyloliquefaciens subtilisin variant S152 (Ala152 to Ser) (Bacillus amyloliquefaciens, UniProt P00782, A259S).
T2 construct: at various amino acid residues within the mature form of the subtilisin molecule; made in house
In words: Kinetics of p-nitroanilide substrate hydrolysis, S152. As to conditions: Table XII, Ser (S) at position 152; synthetic p-nitroanilide substrate with label as P-1 amino acid. The class given is biochemical.
Description: as §1
(§2) The wild type DNA sequence was mutated by the V152/P153 primer (Figure 20, line 4) using the above restriction-purification approach for the new Kpnl site. Other mutant primers (shaded sequences Figure 20; S152, line 5 and G152, line 6) mutated the new Kpnl site away and such mutants were isolated using the restriction-selection procedure as described above for loss of the Kpnl site.
(§3) The results of these substitutions for the above synthetic substrates containing the P-1 amino acids Phe, Leu and Ala are shown in Table XII.

For data set [3], the target named is T3, B. amyloliquefaciens subtilisin variant G152 (Ala152 to Gly) (Bacillus amyloliquefaciens, UniProt P00782, A259G).
T3 construct: made in house
T3 sequence (P00782 108-382 A259G): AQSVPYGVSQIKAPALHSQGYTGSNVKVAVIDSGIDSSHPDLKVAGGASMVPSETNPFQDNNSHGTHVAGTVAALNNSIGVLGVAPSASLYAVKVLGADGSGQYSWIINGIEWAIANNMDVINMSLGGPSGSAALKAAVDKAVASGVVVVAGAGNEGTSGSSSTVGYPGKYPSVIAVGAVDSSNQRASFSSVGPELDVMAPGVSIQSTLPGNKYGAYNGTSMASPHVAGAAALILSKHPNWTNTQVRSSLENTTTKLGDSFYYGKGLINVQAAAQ
The data set can be described thus: Kinetics of p-nitroanilide substrate hydrolysis, G152. The class given is biochemical. As to conditions: Table XII, Gly (G) at position 152; synthetic p-nitroanilide substrate with label as P-1 amino acid.
Description: as §1, §2, §3

Substrate in data set [4]: C[C@H](NC(=O)CCC(=O)O)C(=O)N[C@@H](C)C(=O)N1CCC[C@H]1C(=O)N[C@@H](Cc1ccccc1)C(=O)Nc1ccc([N+](=O)[O-])cc1
The data set can be described thus: Kinetics of p-nitroanilide substrate hydrolysis, L217. The class given is biochemical, B. amyloliquefaciens. As to conditions: other: substrate sAAPFpNa; Km in M.
Description: as §1
Tyr217 has been substituted by all other 19 amino acids. Cassette mutagenesis as described in EPO publication No. 0130756 was used according to the protocol of Figure 22. The EcoRV restriction site was used for restriction-purification of pA217.
Since this position is involved in substrate binding, mutations here effect kinetic parameters of the enzyme. […]

Substrate in data set [5]: C[C@H](NC(=O)CCC(=O)O)C(=O)N[C@@H](C)C(=O)N1CCC[C@H]1C(=O)N[C@@H](Cc1ccccc1)C(=O)Nc1ccc([N+](=O)[O-])cc1
In words: Kinetics of p-nitroanilide substrate hydrolysis, A222. Conditions: other: Table XIX. The class given is biochemical, B. amyloliquefaciens.
Description: as §1
Although mutations at position 222 improve oxidation stability they also tend to increase the Km. In this case the A222 mutation was combined with the K166 mutation to give an enzyme with kcat and Km intermediate between the two parent enzymes.

Substrate in data set [6]: C[C@H](NC(=O)CCC(=O)O)C(=O)N[C@@H](C)C(=O)N1CCC[C@H]1C(=O)N[C@@H](Cc1ccccc1)C(=O)Nc1ccc([N+](=O)[O-])cc1
In words: Kinetics of p-nitroanilide substrate hydrolysis, K166/A222. The class given is biochemical, B. amyloliquefaciens. As to conditions: other: Table XIX.
Description: as §1, with “1012). […]” for “1012).”

Substrate in data set [7]: C[C@H](NC(=O)[C@@H]1CCCN1C(=O)[C@H](C)NC(=O)[C@H](Cc1ccccc1)NC(=O)CCC(=O)O)C(=O)Nc1ccc([N+](=O)[O-])cc1
In words: Kinetics of p-nitroanilide substrate hydrolysis, H104. The class given is biochemical, B. amyloliquefaciens. As to conditions: other: Table XI.
Description: as §1
(§4) Tyr104 has been substituted with Ala, His, Leu, Met and Ser. The method used was a modification of the site directed mutagenesis method. According to the protocol of Figure 19, a primer (shaded in line 4) introduced a unique Hindlll site and a frame shift mutation at codon 104. Restriction-purification for the unique Hindlll site facilitated the isolation of the mutant sequence. Restriction-selection against this Hindlll site using pimers in line 5 was used to obtain position 104 mutants.
(§5) The substrates in Table XI were used to analyze the substrate specificity of these mutants.

Substrate in data set [8]: C[C@H](NC(=O)[C@H](Cc1ccccc1)NC(=O)CCC(=O)O)C(=O)N1CCC[C@H]1C(=O)N[C@@H](Cc1ccccc1)C(=O)Nc1ccc([N+](=O)[O-])cc1
The description is as above. Conditions: other: Table XI. The class given is biochemical, B. amyloliquefaciens.
Description: as §1, §4, §5

Substrate in data set [9]: C[C@H](NC(=O)CCC(=O)O)C(=O)N[C@@H](C)C(=O)N1CCC[C@H]1C(=O)N[C@@H](Cc1ccccc1)C(=O)Nc1ccc([N+](=O)[O-])cc1
The description is as above. The class given is biochemical, B. amyloliquefaciens. Conditions: other: Table XI.
Description: as §1, §4, §5

Substrate in data set [10]: C[C@H](NC(=O)CCC(=O)O)C(=O)N[C@@H](C)C(=O)N1CCC[C@H]1C(=O)N[C@@H](C)C(=O)Nc1ccc([N+](=O)[O-])cc1
Described as above. The class given is biochemical, B. amyloliquefaciens. As to conditions: other: Table XI.
Description: as §1, §4, §5

Substrate in data set [11]: C[C@H](NC(=O)CCC(=O)O)C(=O)N[C@@H](C)C(=O)N1CCC[C@H]1C(=O)N[C@@H](Cc1ccccc1)C(=O)Nc1ccc([N+](=O)[O-])cc1
In words: Kinetics of p-nitroanilide substrate hydrolysis, deletion mutant. As to conditions: other: Table V; substrate not given; Km in M. The class given is biochemical, B. amyloliquefaciens.
Description: The effect of deletion of residues 161 through 164 has been shown by comparing the activity of the wild type (WT) enzyme with a mutant enzyme containing this deletion as well as multiple substitutions (i.e., S153/S156/A158/G159/S160/0161-164/1165/S166/A169/R170). This produced the following results:
as §1

Setting [12] is: Table VIII, substrate succinyl-L-AlaL-AlaL-ProL-[X]-p-nitroanilide, X = label (P1 amino acid).

This note sets out measurements from patent EP0251446B1, “Non-human Carbonyl hydrolase mutants, DNA sequences and vectors encoding same and hosts transformed with said vectors” (GENENCOR INTERNATIONAL, INC., priority 1986, dated 1988).

Numbering of substitutions follows the chain as printed. In names and notes the source's numbering stands. *1 amine or outer side, *2 acyl side, *3 side chain or, on linkers, in order; H or OH if unused. Where a SMILES comes first, the peptide text is derived from it. The star is where a group is joined. pNA = O=[N+]([O-])c1ccc(N*)cc1; Suc = O=C(CCC(=O)[*:2])[*:1]

T2 sequence (P00782 108-382 A259S): as the sequence (P00782 108-382 A259G) above, with G152S counted along it

With `C[C@H](NC(=O)CCC(=O)O)C(=O)N[C@@H](C)C(=O)N1CCC[C@H]1C(=O)N[C@@H](Cc1ccccc1)C(=O)Nc1ccc([N+](=O)[O-])cc1` [Phe] (Suc-AAPF-pNA), the kcat in [1] (setting [12]) turned out to be 50 S^-1; in data set [1] (Table XIII, Glu156/Gly166 (WT), synthetic substrate with label as P-1 residue), 50.00 s-^1. For the same molecule, the “kcat/Kmx10^-4” value worked out at 40.0 in data set [1], 1.0 in [2] and 0.2 in data set [3].

As to `C[C@H](NC(=O)CCC(=O)O)C(=O)N[C@@H](C)C(=O)N1CCC[C@H]1C(=O)N[C@@H](C)C(=O)Nc1ccc([N+](=O)[O-])cc1` [Ala] (Suc-AAPA-pNA), the “kcat/Kmx10^-4” value in data set [1] is recorded as 1.0; in data set [2], 0.2; in data set [3], under 0.04.

As for `C[C@H](NC(=O)CCC(=O)O)C(=O)N[C@@H](C)C(=O)N1CCC[C@H]1C(=O)N[C@@H](CCC(=O)O)C(=O)Nc1ccc([N+](=O)[O-])cc1` [Glu] (Suc-AAPE-pNA), the kcat in data set [1] (setting [12]) was found to be 0.54 S^-1.

`CC(C)C[C@H](NC(=O)[C@@H]1CCCN1C(=O)[C@H](C)NC(=O)[C@H](C)NC(=O)CCC(=O)O)C(=O)Nc1ccc([N+](=O)[O-])cc1` [Leu] (Suc-AAPL-pNA): the “kcat/Kmx10^-4” value in [1] was 10.0; in data set [2] it was 0.5; in data set [3], 0.4.

B1: B. amyloliquefaciens subtilisin variant L217 (Tyr217 to Leu) (Bacillus amyloliquefaciens; Y324L) (protein)
chain: T1 sequence (P00782 108-382) with Y217L
notes: at various amino acid residues within the mature form of the subtilisin molecule; made in house
As to B1, in [4], the Km was 470 µM.

B2: B. amyloliquefaciens subtilisin variant A222 (Met222 to Ala) (Bacillus amyloliquefaciens; M329A) (protein)
chain: T1 sequence (P00782 108-382) with M222A
notes: as for B1
B2: in data set [5], the Michaelis-Menten constant (Km) is 990 µM and the kcat was 42 s-^1.

B3: B. amyloliquefaciens subtilisin variant K166/A222 (Bacillus amyloliquefaciens; G273K/M329A) (protein)
chain: T1 sequence (P00782 108-382) with G166K, M222A
notes: as for B1
Take B3: in data set [6], the Michaelis constant (Km) came out at 200 µM and the kcat came out at 29 s-^1.

B4: B. amyloliquefaciens subtilisin variant H104 (Tyr104 to His) (Bacillus amyloliquefaciens; Y211H) (protein)
chain: T1 sequence (P00782 108-382) with Y104H
notes: as for B1
In the case of B4, the Km in data set [7] amounted to 150 µM; in data set [8], 410 µM; in [9] it was 710 µM; in data set [10], 1900 µM. The kcat in data set [7] is recorded as 2.4 s-^1; in data set [8] it was 38.0 s-^1; in [9] it was 22.0 s-^1; in data set [10], 2.0 s-^1. In addition, the kcat/Km in data set [7] came out at 16000 M⁻¹ s⁻¹; in data set [8] it was 91000 M⁻¹ s⁻¹; in data set [9], 31000 M⁻¹ s⁻¹; in [10], 1000 M⁻¹ s⁻¹.

B5: B. amyloliquefaciens subtilisin deletion mutant S153/S156/A158/G159/S160/Δ161-164/I165/S166/A169/R170 (Bacillus amyloliquefaciens; … (protein)
chain: AQSVPYGVSQIKAPALHSQGYTGSNVKVAVIDSGIDSSHPDLKVAGGASMVPSETNPFQDNNSHGTHVAGTVAALNNSIGVLGVAPSASLYAVKVLGADGSGQYSWIINGIEWAIANNMDVINMSLGGPSGSAALKAAVDKAVASGVVVVAASGNSGAGSISYPARYPSVIAVGAVDSSNQRASFSSVGPELDVMAPGVSIQSTLPGNKYGAYNGTSMASPHVAGAAALILSKHPNWTNTQVRSSLENTTTKLGDSFYYGKGLINVQAAAQ
notes: as for B1
For B5, the Km in data set [11] stood at 5 µM.

Broadly, the Km is the concentration of substrate that gives half-maximal velocity. The kcat/Km is the turnover number divided by the Michaelis constant.
